According to patent publication US20240317834A1, “COMPOSITIONS AND METHODS FOR NEUROLOGICAL DISEASES” (CODA BIOTHERAPEUTICS, INC., priority 2020, published 2024):

System: Lenti-X 293T cells
Assay: YFP fluorescence quenching anion reporter plate reader assay of engineered receptors stimulated with acetylcholine or a non-native ligand
Assay type: cell-based
Details: for percent quench of YFP fluorescence, 10 uM ach: acetylcholine 10 uM; for percent quench of YFP fluorescence, 100 uM ach: acetylcholine 100 uM; for percent quench of YFP fluorescence, 1 mM ach: acetylcholine 1 mM; for percent quench of YFP fluorescence, 3 mM ach: acetylcholine 3 mM
Outline: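 Lenti-X 293T cells carrying a YFP anion reporter were transiently transfected with channel DNA and assayed the next day in HEPES-buffered ECS at pH 7.2. Ligand (acetylcholine or non-native ligand) was added in NaI-substituted ECS. Percent quench was the mean of the last 10 s relative to the 15 s pre-addition baseline.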

B1: CODA407: engineered chimeric LGIC receptor, Y210F in SEQ ID NO: 33 (protein)
chain: MRCSPGGVWLALAASLLHVSLQGEFQRKLYKELVKNYNPLERPVANDSQPLTVYFSLSLLQIMDVDEKNQVLTTNIWLQMSWTDHYLQWNVSEYPGVKTVRFPDGQIWKPDILLYNSADERFDATFHTNVLVNSSGHCQYLPPGIFKSSCPMDLKNFPMDVQTCKLKFGSWSYGGWSLDLQMQEADISGYIPNGEWDLVGIPGKRSERFFECCKEPYPDVTFTVTMRRRMGYYLIQMYIPSLLIVILSWISFWINMDAAPARVGLGITTVLTMTTQSSGSRASLPKVSYVKAIDIWMAVCLLFVFSALLEYAAVNFVSRQHKELLRFRRKRRHHKSPMLNLFQEDEAGEGRFNFSAYGMGPACLQAKDGISVKGANNSNTTNPPPAPSKSPEEMRKLFIQRAKKIDKISRIGFPMAFLIFNMFYWIIYKIVRREDVHNQ
modifications: synthetic sequence of chimeric LGIC
YFP fluorescence quenching using CNL001 (1 nM CNL001, first column): −10.845% | YFP fluorescence quenching using CNL001 (1 nM CNL001, second column): −2.629% | YFP fluorescence quenching using TC-5619/Bradanicline (3 nM brd): −0.53% | YFP fluorescence quenching using Varenicline (3 nM var, first column): 2.441 | YFP fluorescence quenching using Varenicline (3 nM var, second column): 7.326 | YFP fluorescence quenching using CNL001 (10 nM CNL001, first column): 4.66% | YFP fluorescence quenching using CNL001 (10 nM CNL001, second column): 12.246% | YFP fluorescence quenching using TC-5619/Bradanicline (30 nM brd): 8.71% | YFP fluorescence quenching using Facinicline (30 nM fac): −21.94 | YFP fluorescence quenching using Varenicline (30 nM var, first column): 1.275 | YFP fluorescence quenching using Varenicline (30 nM var, second column): 12.96 | YFP fluorescence quenching using CNL001 (50 nM CNL001, first column): 29.307% | YFP fluorescence quenching using CNL001 (50 nM CNL001, second column): 41.78% | YFP fluorescence quenching using ABT-126 (50 nM abt): −13.07% | YFP fluorescence quenching using CNL001 (100 nM CNL001, first column): 50.654% | YFP fluorescence quenching using CNL001 (100 nM CNL001, second column): 62.054% | YFP fluorescence quenching using CNL002 (100 nM CNL002): −12.47% | YFP fluorescence quenching using ABT-126 (100 nM abt): 0.1% | YFP fluorescence quenching using AZD-0328 (100 nM azd0328): 0.85% | YFP fluorescence quenching using ABT-126 (300 nM abt): 5.97% | YFP fluorescence quenching using AZD-0328 (300 nM azd0328): 1.25% | YFP fluorescence quenching using TC-5619/Bradanicline (300 nM brd): 76.26% | YFP fluorescence quenching using Facinicline (300 nM fac): −22.46 | YFP fluorescence quenching using Varenicline (300 nM var, first column): 13.119 | YFP fluorescence quenching using Varenicline (300 nM var, second column): 2.355 | YFP fluorescence quenching using Varenicline (500 nM var, first column): 11.539 | YFP fluorescence quenching using Varenicline (500 nM var, second column): 6.571 | YFP fluorescence quenching using CNL001 (1 uM CNL001, first column): 81.742% | YFP fluorescence quenching using CNL001 (1 uM CNL001, second column): 81.304% | YFP fluorescence quenching using CNL002 (1 uM CNL002): −3.93% | YFP fluorescence quenching using ABT-126 (1 uM abt): 50.23% | YFP fluorescence quenching using TC-6987 (1 uM tc6987): −15.22 | YFP fluorescence quenching using Varenicline (1 uM var, first column): 8.397 | YFP fluorescence quenching using Varenicline (1 uM var, second column): 7.309 | YFP fluorescence quenching using TC-6987 (10 uM tc6987): −19.89 | YFP fluorescence quenching using CNL002 (30 uM CNL002): 80.97% | YFP fluorescence quenching using AZD-0328 (30 uM azd0328): 82.08% | YFP fluorescence quenching using Facinicline (30 uM fac): 82.63 | YFP fluorescence quenching using TC-6987 (500 uM tc6987): −33.32 | percent quench of YFP fluorescence, 10 uM ach: −3.75% | percent quench of YFP fluorescence, 100 uM ach: −1.6% | percent quench of YFP fluorescence, 1 mM ach: 71.65% | percent quench of YFP fluorescence, 3 mM ach: 79.09%

B2: CODA409: engineered chimeric LGIC receptor, Y210W in SEQ ID NO: 33 (protein)
chain: MRCSPGGVWLALAASLLHVSLQGEFQRKLYKELVKNYNPLERPVANDSQPLTVYFSLSLLQIMDVDEKNQVLTTNIWLQMSWTDHYLQWNVSEYPGVKTVRFPDGQIWKPDILLYNSADERFDATFHTNVLVNSSGHCQYLPPGIFKSSCPMDLKNFPMDVQTCKLKFGSWSYGGWSLDLQMQEADISGYIPNGEWDLVGIPGKRSERFWECCKEPYPDVTFTVTMRRRMGYYLIQMYIPSLLIVILSWISFWINMDAAPARVGLGITTVLTMTTQSSGSRASLPKVSYVKAIDIWMAVCLLFVFSALLEYAAVNFVSRQHKELLRFRRKRRHHKSPMLNLFQEDEAGEGRFNFSAYGMGPACLQAKDGISVKGANNSNTTNPPPAPSKSPEEMRKLFIQRAKKIDKISRIGFPMAFLIFNMFYWIIYKIVRREDVHNQ
modifications: synthetic sequence of chimeric LGIC
YFP fluorescence quenching using CNL001 (1 nM CNL001, first column): −8.914% | YFP fluorescence quenching using CNL001 (1 nM CNL001, second column): −14.319% | YFP fluorescence quenching using TC-5619/Bradanicline (1 nM brd): −13.45% | YFP fluorescence quenching using TC-5619/Bradanicline (3 nM brd): −0.64% | YFP fluorescence quenching using Varenicline (3 nM var, first column): 7.776 | YFP fluorescence quenching using Varenicline (3 nM var, second column): −2.964 | YFP fluorescence quenching using CNL001 (10 nM CNL001, first column): −1.444% | YFP fluorescence quenching using CNL001 (10 nM CNL001, second column): 4.393% | YFP fluorescence quenching using TC-5619/Bradanicline (10 nM brd): 37.3% | YFP fluorescence quenching using TC-5619/Bradanicline (30 nM brd): 76.36% | YFP fluorescence quenching using Facinicline (30 nM fac): −10.93 | YFP fluorescence quenching using Varenicline (30 nM var, first column): −5.568 | YFP fluorescence quenching using Varenicline (30 nM var, second column): 3.024 | YFP fluorescence quenching using CNL001 (50 nM CNL001, first column): 11.897% | YFP fluorescence quenching using CNL001 (50 nM CNL001, second column): 11.434% | YFP fluorescence quenching using ABT-126 (50 nM abt): 8.23% | YFP fluorescence quenching using CNL001 (100 nM CNL001, first column): 12.719% | YFP fluorescence quenching using CNL001 (100 nM CNL001, second column): 16.053% | YFP fluorescence quenching using CNL002 (100 nM CNL002): −14.92% | YFP fluorescence quenching using ABT-126 (100 nM abt): 55.53% | YFP fluorescence quenching using AZD-0328 (100 nM azd0328): −6.57% | YFP fluorescence quenching using TC-5619/Bradanicline (100 nM brd): 72.72% | YFP fluorescence quenching using ABT-126 (300 nM abt): 74.82% | YFP fluorescence quenching using AZD-0328 (300 nM azd0328): −4.84% | YFP fluorescence quenching using TC-5619/Bradanicline (300 nM brd): 75.47% | YFP fluorescence quenching using Facinicline (300 nM fac): −5.82 | YFP fluorescence quenching using Varenicline (300 nM var, first column): 2.815 | YFP fluorescence quenching using Varenicline (300 nM var, second column): 3.06 | YFP fluorescence quenching using ABT-126 (500 nM abt): 77.39% | YFP fluorescence quenching using Varenicline (500 nM var, first column): 1.766 | YFP fluorescence quenching using Varenicline (500 nM var, second column): 2.819 | YFP fluorescence quenching using CNL001 (1 uM CNL001, first column): 14.077% | YFP fluorescence quenching using CNL001 (1 uM CNL001, second column): 15.495% | YFP fluorescence quenching using CNL002 (1 uM CNL002): −0.85% | YFP fluorescence quenching using ABT-126 (1 uM abt): 77.77% | YFP fluorescence quenching using TC-5619/Bradanicline (1 uM brd): 78.73% | YFP fluorescence quenching using TC-6987 (1 uM tc6987): 62.82 | YFP fluorescence quenching using Varenicline (1 uM var, first column): 1.844 | YFP fluorescence quenching using Varenicline (1 uM var, second column): −4.059 | YFP fluorescence quenching using ABT-126 (3 uM abt): 69.33% | YFP fluorescence quenching using ABT-126 (10 uM abt): 74.79% | YFP fluorescence quenching using Facinicline (10 uM fac): 60.97 | YFP fluorescence quenching using TC-6987 (10 uM tc6987): 78.66 | YFP fluorescence quenching using CNL002 (30 uM CNL002): 29.62% | YFP fluorescence quenching using ABT-126 (30 uM abt): 75.61% | YFP fluorescence quenching using AZD-0328 (30 uM azd0328): 81.64% | YFP fluorescence quenching using Facinicline (30 uM fac): 57.77 | YFP fluorescence quenching using ABT-126 (50 uM abt): 75.72% | YFP fluorescence quenching using ABT-126 (100 uM abt): 78.52% | YFP fluorescence quenching using TC-6987 (500 uM tc6987): 70.35 | percent quench of YFP fluorescence, 10 uM ach: −5.43% | percent quench of YFP fluorescence, 100 uM ach: 17.14% | percent quench of YFP fluorescence, 1 mM ach: 78.84% | percent quench of YFP fluorescence, 3 mM ach: 78.55%
